From patent US10774121B2, “Methods and compositions for treating neurodegenerative disorders and Alzheimer's Disease and improving normal memory” (The Regents of the University of California, priority 2006, dated 2020)

Test system: protein tyrosine kinase activity
Assay: Protein tyrosine kinase ELISA on extracts of β-APP-transfected ES double-null cells mixed with PS-1-transfected DAMI cells
Type: cell-based
Conditions: 25 μg protein added, 0-20 min after mixing
Method: DAMI:ES cells: Equal numbers (0.5×10^6/ml) of β-APP 695 (Selkoe and Podlisny, 2002)-transfected ES double-null cells and PS-1 transfected DAMI cells were co-cultured at 37° C. for various times between 0-20 mins.
At several times between 0 and 20 min after mixing, an aliquot of each cell mixture was rapidly centrifuged, the culture medium was removed, and the cell pellet was suspended in 200 μl of extraction buffer (50 mM Tris, pH 8.0/150 mM NaCl/0.5% Nonidet-P40) containing protease inhibitors (1 mM 4-(2-aminoethyl) benzene sulfonyl fluoride hydrochloride (AEBSF)/1 μg/ml antipain/0.1 μg/ml pepstatin A/0.1 μg/ml leupeptin) and the phosphatase inhibitor sodium orthovanadate (0.1 mM). The mixture was sonicated with three bursts of 20 sec duration and then centrifuged. These extract supernatants were then used for Western blot and ELISA analyses as described below.
ELISAs Protein tyrosine kinase activity was measured by an Enzyme Linked Immunosorbent Assay (ELISA) using a tyrosine kinase assay kit (Upstate Biotechnology). A biotinylated substrate peptide containing tandem repeats of Poly (Glu4-Tyr) was incubated with supernatants of extracts of transfected cells mixed for different times ([…]) in the presence of non-radioactive ATP and a Mn^2+/Mg^2+ co-factor cocktail according to the manufacturer's protocols. […]

B1: N-terminal domain of PS-2 fused to FLAG: fusion protein with FLAG attached at the N-terminus of the PS-2 N-terminal domain (protein)
chain: MLTFMASDSEEEVCDERTSLMSAESPTPRSCQEGRQGPEDGENTAQWRSQENEEDGEEDPDRYVCSGVPGRPPGLEEELTLKYGAKH
modifications: left off: small tags and cut ends
notes: fusion protein with FLAG attached at the N-terminus of the PS-2 N-terminal domain
- transient increase in protein tyrosine kinase activity after cell mixing: very similar transient increases
- transient increase in protein tyrosine kinase activity after cell mixing (listed as FLAG-PS-2 N-terminal domain fusion peptide): did not inhibit
